Assay: soluble on expression in E. coli; label from the status in PepcDB or PDB records

Row | Sequence | soluble on expression in E. coli
1 | MTTMRTGSQIFMRSGQWNELWKEKNVPLRFTNPNISFDGSERTKAEIEVVDSQEKSLVTRNMQIIPWQHDIANLHLPERDSLILMPCATRTVGRRLTARNIGLADTRGNCDISWPGVMIKIYGQQAVTSARSHQKTAVLFSVRRAQVAAMILTYPWLLSEPVRVIARYSGVSVGTVSNALKIFQKAGYLAETMDGHRLVNAELFLSAWARAYPTGLGADLELLRGKAQQLPPYNLEHLGVKASESAVSDHISDGQSASLYLGEETFSPKVIKELRLVKNPAGTITLRRAFWNTIDVKEIPEAIVYADLLNSDDARLWDVAQIIKAIILKRARGDWLGDQDG | not soluble
2 | FDKVKVSTNFTYTLNQNKIVSLANGAINPETGEAIEMEYYSKGTLGTSGGPTLRLYENGSMGDIYINQRLRQSPNGYIWKDPSNGSLAIENTEYRKVGSILPKYYLGWNGSVAWKGWNLGFAFTGRFGGLVVSDTQAMIDKYGVSESSAVARQAGGVWVGDSKVDAEEYYSKVTTAVGTYYTYSATNIRLSELSLSYQLPKTWFKNHVNMTLGLTGKNLWMIYCKAPYDPESTSSVTSNFYQGVDYFQQPSLRSLGFNVKLTF | not soluble
3 | MGHHHHHHSHKNMKPIGCNAVQLTGGEPTLRDDLIDIIRMIKEEGYDHIQLNTNGIRLAEDPDFALRVRVAGVNTVYLSFDGVDEKTNPKNHHEIPKILENCRRAQLGLVLVPTVIKGVNDHQLGDIIRFAAENIDIVRGVNFQPVSLVGSMPRKEREQFRITIPDCIKAIEEQTNGEIGREDFYPVPSVVPISRFVEALTGQPQYELTTHFACGMATYIFKDNGRLIPITRFVDVEGLFEF | not soluble
4 | SIVLEPIYWNSSNSKFLPGQGLVLYPQIGDKLDIICPKVDSKTVGQYEYYKVYMVDKDQADRCTIKKENTPLLNCAKPDQDIKFTIKFQEFSPNLWGLEFQKNKDYYIISTSNGSLEGLDNQEGGVCQTRAMKILMKVGQDAS | soluble
5 | MFILSKIADLVRIPPDQFHRDTISAITHQLNNKFANKIIPNVGLCITIYDLLTVEEGQLKPGDGSSYINVTFRAVVFKPFLGEIVTGWISKCTAEGIKVSLLGIFDDIFIPQNMLFEGCYYTPEESAWIWPMDEETKLYFDVNEKIRFRIEREVFVDVKPKSPKERELEERAQLENEIEGKNEETPQNEKPPAYALLGSCQTDGMGLVSWWEHHHHHH | soluble
6 | MAHHHHHHMAFTGPNPSIWVGGLDPDLQEQKLYDYFVRIGPVTSVRVCVDSATQKSLGYGYVNFQDPADAEKALDQAGSKLGSRYLRIAKIQRDPSKRRSGVNNILVKKLPKSVDTYALKEMFSKFGRLTAIGLACDEKGESRGYARISFEREESAVDAVREMDGMEMDGQAIVVERYQAQHRDELLKQFTNLYVKNLDPAVTDEKLRAFFAKYGEVSSAKVRDLGAAQSEAGLGYVAFQKHENAARAVEELNGKECEIAKAGSPLDVSRFRSREERQRDRERQRRERAQQHSKYPNLYVKGFDDTVTSERLEELFQRYGETVSVTVMMDKETGVSRCFGFVSMKDQNAASQAIQELNGSTFLSPRPLFVTYALRKDARRQNLEERSKQFRVRQNPMGGPGMGAMPPIGFMGPQMFNNVNMPFMNPRVPIMPMNGMNGIGGMNGMGGMNGVGGVGGMGGMGGMGGMGGMGGMGGMGGMGSMGGMGGMARPMAPNAMSQMRSRPMPQKPPMQSLMPQQHQQAPPQGQNLAAVLANLNPEQQKNVLGERLYSYIVRSHPSVAAKITGMLLEMDNAEILNMLDSPTMLDSKIAEAQDVLNRHMSV | soluble
7 | MSLNRFRKWLYKPKRSDPQLLARFYYADEELNQVAAELDSLDGRKDPQRCTLLVSQFRSCQDNVLNIINQIMDECIPQDRAPRDFCVKFPEEIRHDNLAGQLWFGAECLAAGSIIMNRELESMAMRPLAKELTRSLEDVRGALRDQALRDLNTYTEKMREALRHFDVLFAEFELSYVSAMVPVKSPREYYVQQEVIVLFCETVERALDFGYLTQDMIDDYEPALMFSIPRLAIVCGLVVYADGPLNLDRKVEDMSELFRPFHTLLRKIRDLLQTLTEEELHTLERNLCISQDVEFPIRADEGHHHHHH | not soluble
8 | MAHHHHHHMAPPNGTVCCPEDLKMYSTIQLNQEIEISKNPFPLHEINKKNDIPLCAQEFSDLTDPLYIKKICLEKVPEWNHFTEDNLRVKQILSGLTNQLFEVGLKEETANNYNSIRTRVLFRIYGKHVDELYNTISEFEVYKTMSKYKIAPQLLNTFNGGRIEEWLYGDPLRIDDLKNPTILIGIANVLGKFHTLSRKRHLPEHWDRTPCIFKMMEKWKNQLFKYKNIEKYNCDIHKYIKESDKFIKFMKVYSKSDNLANTIVFCHNDLQENNIINTNKCLRLIDFEYSGFNFLATDIANFFIETSIDYSVSSYPFFEIDKKKYISYENRKLFITAYLSNYLDKSLVVPTPKLIDEILEAVEVQALGAHLLWGFWSIIRGYQTKSYNEFDFFLYAEQRLKMYDDQKEYLISNNI | not soluble
9 | MAHHHHHHMEMHATHVAACSLRRLRSSAVTSRVMTSTHLSLPCRLKSYVLKFLRGQLPEDLKDLNGALGCLYGTLPDVDEFGQFVIAPEIVERFHQLGYIKLPRPVLDAQQVDKLADEVNELANNVEHHPKTEKLYATSLANLTEGPLFYCQGQWRAAWGMHDLIYLPTITVAASQILGNSIVRLWYDEVFMKEARKGPCVPWQQNYARWQHTTPVNHVTVMIALDTMNKDRGAPCLVPGSHRWREGGLLPSVPYDPAKDEAQQLNTIWEITNEEESEMLMDTPPATVDMKRGEALLIHPLTLFATHGNRSLDAVRCCFIHYMGGKTYATQNGPLLPHTTQFQAGAMIQGPFYPVVFDPAMTEELAMLPGESAAQKDITEEV | soluble
10 | MPEDVKNFYLMTNGFHMTWSVKLDEHIIPLGSMAINSISKLTQLTQSSMYSLPNAPTLADLEDDTHEASDDQPEKPHFDSRSVIFELDSCNGSGKVCLVYKSGKPALAEDTEIWFLDRALYWHFLTDTFTAYYRLLITHLGLPQWQYAFTSYGISPQAKVREEHLPL | not soluble
11 | MGHHHHHHHHHSSGHIDDDDKHMLEASAKATMGQGEQDHFVLKSGHAMPAVGLGTWRAGSDTAHSVRTAITEAGYRHVDTAAEYGVEKEVGKGLKAAMEAGIDRKDLFVTSKIWCTNLAPERVRPALENTLKDLQLDYIDLYHIHWPFRLKDGAHMPPEAGEVLEFDMEGVWKEMENLVKDGLVKDIGVCNYTVTKLNRLLRSAKIPPAVCQMEMHPGWKNDKIFEACKKHGIHITAYSPLGSSEKNLAHDPVVEKVANKLNKTPGQVLIKWALQRGTSVIPKSSKDERIKENIQVFGWEIPEEDFKVLCSIKDEKRVLTGEELFVNKTHGPYRSARDVWDHEN | soluble
12 | MSLTEILIVEDDDIIATLIERFLLQREYVVCAKVATGEDALYKAAEHLPDLVLMDINLAGKIDGITATKFITAIFHIPVIFLSGQDDETTLERATMAEPASFIIKPFNAKDLYSNIEIALHNDREGHHHHHH | not soluble
13 | MKKPIEFYLSGDRVYSTREKAINQLYNNRGYGELKGDKLFLSLIEAAYLTEKGWIKVVDKDKELKFDDLMKLGKSRDEDFDIKYIVYKDLRDRGYIVKSALKFGSHYRVYRKDAEHSDWLIWVLRENQRLSPNDITARARVAHGVRKNMVLAIVDEDGDVVYYKVEWIKF | soluble
14 | MLTTLSCCCNMPVVKVNCWNNMKVQIKSITQWGGVLLLSFSSCYVNANKLIKPNILFIAVDDLKPLIRDYGTAKVQTPNIDKLASQSTVFTRAYSQYPVCGPSRMSILTGLRPESNGIMNLKDKIRDVNPSVITLPQFFKNNGYETAATGKIFDPRNTTSRSEEEVLSWSIPYQRPKHGLKGKTRLAVESIDEPDEKFVDGGILKRGKKLLKQMANKNKPFFLAVGFKKPHLPFVAPKKYYDLYSRESFDLASYQSAPEDADTTYLFHKNQELRGYKPTPIKGGEIKPYPKGKLSSAHQKELLHGYFASVSFIDSLVGELLEELEKTGQAENTVIVFWGDHGFHLGDHGLWGKHTTMEQANHVPLIIKIPGSKANRYAKPVELLDVFPSLTEAAGLSIPNNLQGTSLVSLVTGKLKSIDKVAISQYKRKGAYGYSMRTEQYRYTQWVTPSGKVVYRDLYDLINDPLETKNIINTPEGKLLEVELNKQLHTNSAGLKRLKLEHHHHHH | not soluble
